# Source: patent US8911422B2, “Micro-needle device” (Hisamitsu Pharmaceutical Co., Inc., priority 2010, dated 2014)
# Tested on: rats
# Experiment: in vivo injection with micro-needle device (Example 2), availability
# Design: species or system rat
# Settings: coating range 200 μm
# Protocol: A micro-needle device similar to that of Example 1 was used to perform in vivo injection (rats) to determine availability. Here, 14C-OVA was coated on each of the micro-needles, and a coating range thereof was 200 μm in height including the top of the micro-needle concerned (that is, the range H=200 μm in FIG. 3 (c)). The 14C-OVA coated on the micro-needle device was about 100 μg in total, and pullulan, that is, a coating carrier, was about 100 μg in total.
# On injection, used was a spring impact-type applicator capable of giving an impact due to the elastic energy of 0.4 J/cm^2 to the back face of the micro-needle device. The elastic energy of the spring impact-type applicator is determined by the above-described formula (I). A spring constant for yielding the elastic energy of 0.4 J/cm^2 was 0.569 N/mm. In order to determine the availability, a Geiger-Muller (GM) counter tube was used to count radiant rays, and the measurement result was applied to a previously prepared calibration curve to determine an initially coated quantity and a quantity remaining on the micro-needle device peeled after puncture. Then, the remaining quantity was divided by the initially coated quantity to determine the availability.
molecule,measurement,setting,value
"14C-OVA (protein, UniProt P01012 2-386, looked up, 14C radiolabel, 14C-OVA coated on the micro-needles with pullulan as coating carrier) Ovalbumin: GSIGAASMEFCFDVFKELKVHHANENIFYCPIAIMSALAMVYLGAKDSTRTQINKVVRFDKLPGFGDSIEAQCGTSVNVHSSLRDILNQITKPNDVYSFSLASRLYAEERYPILPEYLQCVKELYRGGLEPINFQTAADQARELINSWVESQTNGIIRNVLQPSSVDSQTAMVLVNAIVFKGLWEKAFKDEDTQAMPFRVTEQESKPVQMMYQIGLFRVASMASEKMKILELPFASGTMSMLVLLPDEVSGLEQLESIINFEKLTEWTSSNVMEERKIKVYLPRMKMEEKYNLTSVLMAMGITDVFSSSANLSGISSAESLKISQAVHAAHAEINEAGREVVGSAEAGVDAASVSEEFRADHPFLFCIKHIATNAVLFFGRCVSP",availability,impact 0.4 J/cm^2 given once,38%
same,availability,"impact 0.4 J/cm^2 once, then pushed one minute at 1 kg/patch",42%
same,availability,"impact 0.4 J/cm^2 once, then pushed one minute at 3 kg/patch",58%
